In paper PMC12000455:

Molecular target: Slik coiled-coil C-terminal domain (Slik^CCD) (Drosophila)
Test: SEC; purified Slik^CCD on a Superdex 75 10/300 column in 20 mM Tris-HCl pH 7.5, 150 mM NaCl, 2 mM DTT; elution peak at 95.45 kDa

Slik coiled-coil C-terminal domain (Slik^CCD) (domain or fragment)
stoichiometry N: 2
